In patent US20090282582A1, “ENVIRONMENTAL STRESS RESPONSIVE PROMOTER AND METHOD OF TISSUE-SPECIFIC GENE EXPRESSION USING THE SAME” (RIKEN, priority 2006, published 2009):

B1: Promoter of RAFL09-07-M01: environmental stress responsive promoter DNA, SEQ ID NO: 7, upstream of At4g20830 (protein containing FAD-binding domain) (nucleic acid, listed as Arabidopsis thaliana)
DNA: AGGTGCAGGAGATTGAATCGAAGCTTCGTTTATAAAACAATGTACATAGTTGTTTAAAGTCTTAAAGTTGGACTTTTCTTTTGCTCAGCCCCACAAACCCAATTGGATTATAATACCGACGCCGACCAATCAATGCTACGACCATTGACTTATAAAACATACATCGGACACACACAAAAAAAAACTACACTTTTTGTATCAGCAATCTTTTTAGTTATTTGTTTTCAGTTATATAAATCAATGTTTGTGTTTTCTAATAACAGTTATTAGTATGCTAGTGATGCATGGTTAAAAAAAAAAAAAGAAATTTCAAATATATATTTTAATTTGCATTATGTAAAATATTTTAAAAATAAGTCCCTAGTACCAATGGAGTGTTTTTGTTTAAGCTACAAGTGAATTATAATACGTAGTAATCTTGATTCAAATGGAAAGATTTACCATGTGGGTCTATACCAAAACCGTGTCCTTTTTCATATGTATGAATCTCTAATAGTTGCTTCTTTTGACTAGAATAATTTGTAAAGTAACTCCTAATTCATAAATATTGAAGATTAGTCTGATTTATTATTAATATGCAAATCTCTGATTAATAAGAAATAAATTATAATAGAAATATTGATGTGTACTGATCATCTTTTAATAAATGTTTGAGACTACAAATACTATAATGAATCAAATGAACATAAATGTATAGATGAACTGAATAAAATTCCAGATACACCTTGAATTAAATATGTATTCATAGTATTTTTTTTTAAAATGAAATCTGGATTTTAAATCCTTATTATTCAAAAAAATCTTCTCCTTTGATATTTTTGCTATAACAAATTAAAATAAAATCTGTAATCACTAATCATATCCCTTAACTCCCTTTAATATCTTTTGTTGACCAAAACAAATATTTTTTTGTTATATGCAACGAATAAAAAAACATTGAAAGTACTTTCCAAAAACAAAACACGTCTTCTTCTCCCTGCGGTTATAAATAGACACGGATAAGTACAAAGAACAGAGGAACACGAGACCCAAGAAAAAGATCTCAAA
B2: Promoter of RAFL08-17-O07: environmental stress responsive promoter DNA, SEQ ID NO: 8, upstream of At2g29450 (glutathione S-transferase) (nucleic acid, listed as Arabidopsis thaliana)
DNA: CGGTGGCAAAACAATTGGATTTTTGGACTTGGTCGCAGGAAGTATGATCCCGTTTTGTCTTGCTCGAGGTTGGGAAGGTATGGGAATTGATATGATTCCAGAGGAAAAGTTTCCAGAGCTAAACAGATGGATCAAAAATTTGAAAGAAATTGAGATCGTGAGAGAATGTATTCCTCCTAGAGAGGAACAAATTGAGCATATGAAGAAAGTTGTAGAAAGAATCAAATCAGCCTAAGAGACAACAATGATACTCTTCGATCAGTAGATGTTAACTATATGTTTGTGTAATCTTGTTATAATAGTTTGTATGAACAATAAATGAAACATTTGTATGAACAATTAGTGTTTTTACTAAATTCTAATGTCAATTAATTATTATAAACATTTTAAATGTAGTAGTATTCAATTTCTTACAAATCATAAGAAATTGGTTCATAAACCTGGAGTTTTCATATGAAAGAAAAGTAGATAAAAGCTATAATTTAGTCAAACCATCCTTCTTAATAAAACCACAACTATGATTAAATGTGAACATGTATTTCGACACGTAAGAAGTTGTGTAAACAGAGGAAAGTACAACGGACATGTGGGTCTATTTGTTGCGGCACAATATAACAAATTTCTTTAGTATATTTTTAGTATCGTGAGGTGGTGAGTCTTGTAACCATAGAAAATTCACCGATACTTTATAACATTGTTGGAAGGAAAATTCAGCAAACAAGTTCGTAGATGGAGAAACGGAAAAACCAACGCCTATTATAACAACAACATTTTTAATATATGCCAAAAGGAACATCAAATAACAGATTAGTACTAATTCTTTTTTTATAGCTCAGACTATAGAGTTGTTTGTTTTCTTGGGCGTCAATATAACAAACGAGAATGACAAATGGTTTTAAAGCTGTTGATGTTTCATACACAGACAAAATGGATCAATTATGAAGAACCACGATAAAGTGATGGGTATAATTGGGGAAGCAGAAGAAATTCTTGACGAAGCATGGGGTTGTCTTCAGAAAATGAATGGATCAAGTCAAGGTACACATGCTCCAGGGATAAGGCAAGGTTAGGAATTAGGACACATCTCCACTTACTAAAAAAGAGATAAAAAAAAATTATAAAGGGAACGTTATAAATATGTTGTAAAGTCAACATCTGTTTCCTTCTAGACTCTTCGCATTTACATCACACTGCCGACCATATAAAACGGCAAAGTTCGTCGTCGTTTTATCACAAGACCATCAACACCATAAGGCTATAAATCCAAGCTAAAAGGTAGTGATTAACTCCACAAAACCAGAAAAAACTACATTTCTAACATATAGAAGAAACAGAGAAAAAGAGAGAGAGACCCCTA

How the values were obtained:
[1] = tested on: Arabidopsis thaliana (columbia ecotype) plant body; experiment: full-length cDNA microarray analysis of gene expression levels after environmental stress application; conditions: in vivo
Method in brief: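 Three-week-old Arabidopsis grown at 22° C. on a 16 h light/8 h dark cycle were stressed by 4° C. cold, 2 h open-plate dehydration, or root application of MS medium containing 250 mM NaCl or 100 μM ABA. Total RNA/mRNA from stressed and unstressed plants was reverse transcribed with Cy3/Cy5 dUTP and hybridized to full-length cDNA microarrays.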

[2] = tested on: transgenic Arabidopsis thaliana plant body (luciferase reporter gene); experiment: luciferase assay of promoter::LUC transgenic plants after environmental stress application; type: in vivo; conditions: for activity to induce gene expression compared with other promoters: in vivo; for Tissue allowing specific induction: summary over stress types
Method in brief: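 Arabidopsis lines carrying promoter::luciferase, 10 days after sowing on MS agar, sprayed with 1 mM luciferin (0.01% Triton-X), 5 min dark, imaged by ARGUS before stress. Stresses: 4° C, 2 h air dehydration, 250 mM NaCl or 100 μM ABA to roots; luminescence at 2, 5, 10 h.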

Molecule	Environmental stress type to which the promoter responds [1]	Tissue in which specific induction of expression is realized ([2]; Salt stress (250 mM NaCl))	Tissue in which specific induction of expression is realized ([2]; Salt stress (250 mM NaCl), listed as promoter of RAFL09-07-M01)	activity to induce gene expression compared with other promoters [2]	Tissue allowing specific induction [2]	Tissue in which specific induction of expression is realized ([2]; ABA stress (100 μM ABA))	Tissue in which specific induction of expression is realized ([2]; ABA stress (100 μM ABA), listed as promoter of RAFL08-17-O07)
B1	Dehydration and salt	Stem and leaf tissue and root tissue	stem and leaf tissue and root tissue	lower than that of other promoters	Stem and leaf tissue and root tissue	–	–
B2	Dehydration and salt	–	–	lower than that of other promoters	Root tissue	Root tissue	root tissue
